Target: T1, ASK1-KR (human ASK1 with lysine 709 at the ATP-binding site replaced with arginine) (human, UniProt Q99683 1-1374)
T1 construct: Bait in the yeast two-hybrid screen (Brent's system); also called bait
T1 sequence (looked up): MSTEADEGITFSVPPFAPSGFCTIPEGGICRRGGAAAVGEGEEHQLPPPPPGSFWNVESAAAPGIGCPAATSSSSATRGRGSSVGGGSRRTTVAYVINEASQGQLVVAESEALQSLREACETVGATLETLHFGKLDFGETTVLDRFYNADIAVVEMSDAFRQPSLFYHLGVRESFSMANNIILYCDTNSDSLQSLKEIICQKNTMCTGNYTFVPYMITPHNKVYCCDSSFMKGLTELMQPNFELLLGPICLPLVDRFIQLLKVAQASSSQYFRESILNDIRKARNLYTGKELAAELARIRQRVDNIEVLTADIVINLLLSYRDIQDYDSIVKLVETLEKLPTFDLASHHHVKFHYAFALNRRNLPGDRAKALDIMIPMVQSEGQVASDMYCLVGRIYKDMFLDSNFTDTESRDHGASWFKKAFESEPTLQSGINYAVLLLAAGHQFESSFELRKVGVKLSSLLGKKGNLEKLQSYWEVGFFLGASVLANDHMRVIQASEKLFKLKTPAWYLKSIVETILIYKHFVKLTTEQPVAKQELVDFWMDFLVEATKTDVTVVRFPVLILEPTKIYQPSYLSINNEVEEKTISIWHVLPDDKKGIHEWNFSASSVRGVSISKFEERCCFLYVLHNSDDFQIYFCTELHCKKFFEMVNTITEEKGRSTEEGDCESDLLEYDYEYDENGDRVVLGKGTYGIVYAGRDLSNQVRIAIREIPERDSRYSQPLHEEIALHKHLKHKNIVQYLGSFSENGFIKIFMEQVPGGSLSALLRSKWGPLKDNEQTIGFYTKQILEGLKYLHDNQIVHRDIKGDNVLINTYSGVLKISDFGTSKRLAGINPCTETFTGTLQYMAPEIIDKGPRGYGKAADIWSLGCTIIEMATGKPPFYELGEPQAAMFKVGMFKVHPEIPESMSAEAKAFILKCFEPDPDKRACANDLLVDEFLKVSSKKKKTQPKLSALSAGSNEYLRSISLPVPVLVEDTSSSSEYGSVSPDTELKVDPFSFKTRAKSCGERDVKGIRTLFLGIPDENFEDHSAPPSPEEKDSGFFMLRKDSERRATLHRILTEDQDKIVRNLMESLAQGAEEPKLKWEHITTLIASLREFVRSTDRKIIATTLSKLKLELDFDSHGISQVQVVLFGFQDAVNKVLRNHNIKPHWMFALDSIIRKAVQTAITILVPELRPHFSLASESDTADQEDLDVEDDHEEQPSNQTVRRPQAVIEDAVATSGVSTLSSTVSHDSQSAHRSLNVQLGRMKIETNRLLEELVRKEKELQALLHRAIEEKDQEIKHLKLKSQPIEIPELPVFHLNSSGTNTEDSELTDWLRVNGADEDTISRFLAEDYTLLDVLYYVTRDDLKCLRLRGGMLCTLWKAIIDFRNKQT
Assay: yeast two-hybrid (Brent's system), ASK1-KR as bait, fetal human brain expression library as prey; positive clone
Experimental: To identify the ASK1-binding protein, screening was conducted by the yeast two-hybrid method using Brent's system [Zervos et al., Cell, Vol. 72, p. 223-232, 1993; Gyuris et al., Cell, Vol. 75, p. 791-803, 1993] with ASK1-KR, prepared by replacing lysine (K) at the ATP-binding site (position 709) in the kinase domain of human ASK1 with arginine (R), as a bait and an expression library of fetal human brain origin as a prey. As a result, about 1200 positive clones were obtained. Database search of one of them based on its base sequence identified it as a portion of the protein coding region of the gene designated as “PGR1” (a portion corresponding to amino acid positions 35 to 127). […] Since this protein was identified as an ASK1-binding protein, it was designated as ASK1 binding protein 1 (ABP1).

B1: ABP1 (PGR1) fragment, amino acid positions 35 to 127, positive clone of the two-hybrid screen (other)
chain: MREDIASLTREHGRAYLRNRSKLWEMDNMLIQIKTQVEASEESALNHLQNPGDAAEGRAAKRCEKAEEKAKEIAKMAEMLVELVRRIEKSESS
notes: Prey from an expression library of fetal human brain origin; also called PGR1 (a portion corresponding to amino acid positions 35 to 127); prey clone
binding result: binds

From patent US20060240023A1 (Takeda / Millennium, published 2006)
